Data as given in patent publication US12291578B2, “Anti-matrix metalloproteinase 7 (MMP-7) inhibitory antibody and uses thereof” (Yeda Research and Development Co. Ltd., priority 2019, dated 2025).
“Also recorded” adds a separate entry of the source. Like-named read-outs stand apart in the source and are kept apart here.

Legend:
AsPC-1 cells [1] = assay: Gemcitabine co-treatment, MTT cell death assay; type: cell-based; details: Homo sapiens, ASPC1, 72 h
Protocol: Gemcitabine co-treatment: 10,000 AsPC-1 cells/well were seeded into 96 well flat bottom plate and incubated overnight at in a humidified incubator at 37° C. with 5% CO2. Media in wells were replaced by serum free RPMI medium containing 2.33 μM GSM-192 or PBS and 0.05, 0.1, 0.5, 1, 5, 10, 40 and 80-μM gemcitabine. The plates were further incubated for 72 hours in a humidified incubator at 37° C. with 5% CO2. MTT solutions (M5655 SIGMA) was added at 10% of total culture volume (0.5 mg/ml MTT in RPMI/IMDM without phenol red) and after 3 hours incubation, plate was washed with PBS and solubilized using MTT solvent (0.1 N HCl in anhydrous isopropanol). The read out was obtained at […]. Cell death data was plotted as a function of the log of Gemcitabine concentration and fitted on a variable slope sigmoidal regression model (GraphPad prism 8.3.0). Further, an average of IC50 from 3 experimental repeats and corresponding standard deviation was calculated.

FasL in AsPC-1 cells = assay: Western blot of FasL expression in cell lysates; type: cell-based, human; details: AsPC-1 cell lysates, 24 hours, sub lethal concentrations
Protocol: Western Blots: Treated cells were lysed with RIPA buffer containing protease inhibitors and shaken intermittently while stored in ice for 30 min. The debris was removed by centrifugation at 14,000×g and supernatant was used for BCA protein determination assay. Alternatively, culture supernatants were concentrated at least 10 times using 0.2 μm centricons. Once normalized to equal protein content, sample buffer was added and heated for 3 minutes at 95° C. The denatured samples were centrifuged for 5 min at 14,000×g before 25 μL was loaded onto SDS page gel and standard blotting procedures were followed (General Protocol for Western Blotting, BioRad bulletin 6376). Primary Abs used were MMP-7 (abcam, ab5706), Fas-L (abcam, ab15285), α Tubulin Ab (sc31779).
Anti LOXL-2 (Lysyl Oxidase like 2) mAb33, produced in a similar pipeline was used as an isotype control. […] To test for molecular markers of apoptosis, Fas ligand expression was analysed by Western blot analysis. AsPC-1 cells were treated with GSM-192 Fab for 24 hours at sub lethal concentrations.

AsPC-1 cells [2] = assay: FACS Annexin-V apoptosis detection assay; type: cell-based, human; details: AsPC-1, 24 h, increasing dose
Protocol: FACS Annexin-V apoptosis detection assay: 70% confluent cells in 6 cm plates were treated with sterile GSM-192 Fab fragment/control anti LOXL-2 Fab fragment for 24 h and prepared for FACS using the Annexin-V FITC apoptosis detection kit (E Biosciences 88-8005-72) as described previously^53. The FACS acquisition was done using FACS LSR-II machine in Cell Quant software (Becton Dickinson) and further analysis on FlowJo software (Treestar, Inc., San Carlos, Calif.).

MMP-12 = MMP-12 (Homo sapiens, UniProt P39900); assay: Enzymatic activity of related MMPs (fluorogenic peptide); type: biochemical; details: in vitro
Protocol: (§1) MMP-7 enzymatic kinetic assay: The enzymatic activity of MMP-7 in the presence of GSM-192 Fab was measured at 37° C. by monitoring the hydrolysis of fluorogenic peptide Mca-Pro-Leu-Gly-Leu-Dpa-Ala-Arg-NH2 (SEQ ID NO: 10) at λex=340 nm and […] as described previously^30. A range of different concentrations of GSM-192 Fab (0-200 nM) were incubated with 10 nM of MMP-7 in 50 mM Tris-HCl buffer (pH 7.5 at 37° C.), 100 mM NaCl, 5 mM CaCl2, and 0.05% Brij-35 for 2 h at 37° C. The enzymatic reaction was initiated by addition of the fluorogenic peptide to a final concentration of 10 μM. Fluorescence was recorded immediately and continuously for 30 min.
(§2) Remarkably, considering that the immunization booster also included the common zinc motif, the antibody is fully selective for MMP-7. The effect of GSM-192 Fab fragment on the enzymatic activity of human MMP-7 was examined in vitro using a short fluorogenic peptide according to a standard protocol. The enzymatic activity of recombinant active MMP-7 was measured in the presence of increasing concentrations of the Fab fragment of GSM-192. […] Simultaneously the effect of the antibody on catalytic activity of related MMPs was measured.

MMP-9 = MMP-9 (Homo sapiens, UniProt P14780); assay: as above; type: biochemical; details: in vitro
Protocol: as §1, §2

MMP-14 = MMP-14 (Homo sapiens, UniProt P50281); assay: as above; type: biochemical; details: in vitro
Protocol: as §1, §2

MMP-12, sequence (P39900 106-470): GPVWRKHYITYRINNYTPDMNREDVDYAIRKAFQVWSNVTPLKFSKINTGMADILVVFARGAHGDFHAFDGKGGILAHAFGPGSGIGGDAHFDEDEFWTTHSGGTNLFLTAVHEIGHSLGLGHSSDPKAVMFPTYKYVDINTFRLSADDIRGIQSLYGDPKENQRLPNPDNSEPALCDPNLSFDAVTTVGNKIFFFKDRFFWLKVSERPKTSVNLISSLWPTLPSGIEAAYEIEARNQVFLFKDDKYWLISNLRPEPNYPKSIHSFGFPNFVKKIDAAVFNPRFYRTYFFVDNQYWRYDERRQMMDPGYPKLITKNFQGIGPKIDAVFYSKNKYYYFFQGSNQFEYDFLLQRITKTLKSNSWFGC
MMP-9, sequence (P14780 94-707, species assumed): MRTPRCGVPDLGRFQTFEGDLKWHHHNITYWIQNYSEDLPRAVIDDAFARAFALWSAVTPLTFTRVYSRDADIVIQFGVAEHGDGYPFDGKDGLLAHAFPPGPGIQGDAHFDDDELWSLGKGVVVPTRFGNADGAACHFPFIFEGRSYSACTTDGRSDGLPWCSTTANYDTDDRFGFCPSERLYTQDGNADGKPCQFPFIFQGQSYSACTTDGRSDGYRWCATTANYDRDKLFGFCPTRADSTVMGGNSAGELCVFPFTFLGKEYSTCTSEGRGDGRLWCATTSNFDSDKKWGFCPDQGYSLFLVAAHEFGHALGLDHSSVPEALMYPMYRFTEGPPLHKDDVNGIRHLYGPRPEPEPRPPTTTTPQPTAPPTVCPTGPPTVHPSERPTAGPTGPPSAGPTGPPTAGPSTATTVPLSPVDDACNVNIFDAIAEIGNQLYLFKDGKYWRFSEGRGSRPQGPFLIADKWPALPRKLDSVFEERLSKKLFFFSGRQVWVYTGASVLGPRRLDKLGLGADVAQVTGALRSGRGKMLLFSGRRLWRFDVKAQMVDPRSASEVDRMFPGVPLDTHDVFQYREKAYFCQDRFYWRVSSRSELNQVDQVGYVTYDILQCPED

Nc1ccn([C@@H]2O[C@H](CO)[C@@H](O)C2(F)F)c(=O)n1 [GEM, gemcitabine]
IC50 (AsPC-1 cells [1]; GEM+PBS group, 72 hours): 127 ± 40.5 nM | IC50 (AsPC-1 cells [1]; co-treatment with 2.33 uM GSM-192, 72 hours, read-out: IC50 of GEM): 14.2 ± 1.52 nM

B1: GSM-192 Fab: Fab fragment of GSM-192 obtained by papain digestion (antibody, V domains shown)
VL: DIVTQSPASLAVSLGQRATISCRASESFDSYGNTFVHWYQQKPGQPPKLLIYLVSNLESGVPAGFRGRGSRTDFTLTIDPVEADDAATYYCQQNNEDPYTFGGGTKLEIKRA
VH: EVQLQQSGPELVKPGASVKIPCKASGYTFTDYNMDWMKQSHGKSLEWIGHINPNNGGTFYNQKFKDKATFIVDKSSNTAYMELRSLTSEDTAVYFCARGGGLRRGPFAYWGQGTLVTVS
FasL expression (FasL in AsPC-1 cells): increase of Fas ligand (FasL) expression | FasL expression (FasL in AsPC-1 cells; listed as anti MMP-7 Fab): overall increase in FasL levels | Annexin V related apoptosis (AsPC-1 cells [2]): induce cell death via apoptosis; also recorded: increased Annexin V related apoptosis | effect on catalytic activity of MMP-12 (MMP-12): not affected | effect on catalytic activity of MMP-9 (MMP-9): not affected | effect on catalytic activity of MMP-14 (MMP-14): only negligibly affected
